# Test results from patent US7507716B2, “Method for treating pain with prolactin antagonists” (Board of Regents, The University of Texas System, priority 2005, dated 2009).
# B1: PRL: Ovine PRL [oPRL-21, BIO] provided by NHPP; prolactin polypeptide hormone (protein, UniProt P01240 31-229, looked up)
# Prolactin: TPVCPNGPGNCQVSLRDLFDRAVMVSHYIHNLSSEMFNEFDKRYAQGKGFITMALNSCHTSSLPTPEDKEQAQQTHHEVLMSLILGLLRSWNDPLYHLVTEVRGMKGVPDAILSRAIEIEEENKRLLEGMEMIFGQVIPGAKETEPYPVWSGLPSLQTKDEDARHSAFYNLLHCLRRDSSKIDTYLKLLNCRIIYNNNC
# Columns and labels:
# [1] = system: acutely dissociated TG neurons; assay: Calcium imaging, PRL effect on capsaicin-evoked Ca2+ influx; assay type: cell-based, rat
# Source text: The binding of PRL to the PRL-R activates a variety of intracellular signaling pathways in non-neuronal cells (Bole-Feysot et al. 1998), some of which are known to be involved in the sensitization of TRPV1 in nociceptors (Cesare and McNaughton, 1996). To evaluate whether PRL sensitizes capsaicin activation of TRPV1, changes in calcium (Ca^2+) influx were quantified in acutely dissociated TG neurons. FIG. 4A depicts the results of Ca^2+ imaging experiments performed in acutely dissociated TG neurons. Data are presented as mean % of vehicle±SEM (n=30/group, ***=p<0.001; two-way ANOVA). FIG. 4B depicts representative traces of Ca^2+ imaging experiments performed in neurons from proestrous rats. Neurons were treated with 40 nM PRL or vehicle for 10 min followed by a 40 sec capsaicin (30 nM) application. […] Data are presented as mean F340/F380±SEM (n=8/group; error bars are SEM). […] PRL appears to increase the magnitude of capsaicin-evoked Ca^2+ influx in TG neurons by about 71% compared to that observed in TG neurons not exposed to PRL, whereas PRL had no effect on capsaicin-evoked calcium influx in neurons from OVX control rats (FIG. 4A). […]
# Calcium Imaging: TG cells cultured on coverslips were loaded with the cell-permeable calcium sensitive dye FURA 2-AM (1 ug/ml) (Molecular Probes, Eugene, Oreg.) for 30 min at 37° C. in Standard External Solution (SES) of the following composition in mM: 140 NaCl, 5 KCl, 2 CaCl2, 1 MgCl2, 10 glucose and 10 HEPES, pH 7.4. […] Fluorescence images were collected in 5 sec intervals throughout the experiment, analyzed, and the F340/F380 ratio calculated by the Methafluor Software (MethaMorph, Web Universal Imaging Corporation, Downingtown, Pa.). […] The magnitude of calcium influx was determined by subtracting the averaged baseline 30 sec prior to the capsaicin stimulus from the peak achieved by the capsaicin stimulation for each cell (ratiometric method, ΔF340/F380).
# [2] = system: TG neurons; assay: Patch clamp, heat-evoked currents (Iheat); assay type: cell-based, rat; details: neurons from intact female rats
# Description: TRPV1 is known to be activated by noxious heat (>42° C). Furthermore, this effect is itself sensitized by hyperalgesic agents such as bradykinin (Cesare et al., 1999) and NGF (Chuang et al., 2001; Zhu et al., 2004). To determine whether PRL sensitizes heat-evoked currents (Iheat), the effect that pre-treatment of intact female rat TG neurons with PRL has on Iheat was examined. […] Data are presented as mean±SEM (n=8-12/group, ***=p<0.001 versus vehicle control; two-tailed unpaired T test). […] (FIG. 6B) and 48° C. (FIG. 6C). Data are presented as mean±SEM (n=8-12/group, ***=p<0.001 versus vehicle control; two-tailed unpaired T test). FIG. 6D and FIG. 6E are representative traces of Iheat recordings from TG neurons pretreated with PRL or vehicle (6D); and plotting Iheat as a function of temperature (FIG. 6E). PRL lowered the activation temperature threshold and increased the magnitude of Iheat. In addition, the magnitude of the Iheat evoked at 43° C. (I43) and 48° C. (I48) points in neurons pretreated with prolactin or vehicle was measured.
# Patch Clamp Electrophysiology: All recordings were performed in whole-cell voltage-clamp (Vh=−60 mV) configuration. Recordings were acquired at 22-24° C. from the somata of neurons (15-45 pF) using an Axopatch200B amplifier and pCLAMP9.0 software (Axon Instruments, Union City, Calif.). Data were filtered at 0.5 kHz and sampled at 2 kHz. Borosilicate pipettes (Sutter, Novato, Calif.) were polished to resistances of 3-5 MΩ in pipette solution. Access resistance was compensated (40-80%) to 7-10 MΩ values when appropriate. Cell diameters were calculated using d=√[100*Cm/π], where d (μm) is cell diameter and Cm (pF) is membrane capacitance.
# For the recording of heat-activated currents (Iheat), SES was heated on-line by a Peltier device (Warner Instruments, Hamden, Conn.) and locally delivered via a glass tube positioned in close proximity to the neuron. Temperature values were acquired with a thermister probe (0.5-1.5 mm size; Harvard Apparatus, Holliston, Mass.) situated at the orifice of the glass tube for local delivery of heated SES. […]
molecule,measurement,setting,value
B1,increase in magnitude of capsaicin-evoked Ca2+ influx,"[1]; PRL 40 nM 10 min, capsaicin 30 nM 40 sec, neurons from intact female rats",about 71%
same,effect on capsaicin-evoked calcium influx,"[1]; PRL 40 nM, neurons from OVX control rats",had no effect
same,Ca2+ influx evoked by PRL on its own,"[1]; PRL 40 nM, neurons from proestrous rats",did not evoke Ca^2+ influx on its own
same,threshold temperature for Iheat activation,"[2]; PRL 40 nM for 5 min, n=16, vehicle 41.9±0.67",36.8±0.58 °C
same,inward currents evoked by 43° C. (I43),[2]; PRL pretreatment,significantly increased
same,inward currents evoked by 48° C. (I48),[2]; PRL pretreatment,significantly increased
